Experimental data: PMC7693655, “The Partner Switching System of the SigF Sigma Factor in Mycobacterium smegmatis and Induction of the SigF Regulon Under Respiration-Inhibitory Conditions” (Frontiers in Microbiology, 2020)

Legend:
[1] = target: RsbW1 (MSMEG_1803), purified from E. coli (pT7-7rsbW1) (M. smegmatis) (UniProt A0QTD7); test: native gel or EMSA; non-denaturing PAGE, CBB stain; 160 pmol RsbW1 mixed with increasing amounts of WT, S63A or S63E RsfB in binding buffer [40 mM Tris-HCl (pH 8.0), 0.01 mM EDTA, 10 mM MgCl2, 20% (v/v) glycerol], 30 min at 25°C
[2] = target: T1, RsbW1 (MSMEG_1803), purified from E. coli (pT7-7rsbW1) (M. smegmatis, UniProt A0QTD7 1-138); test: as above; conditions: both partners purified
T1 construct: Anti-sigma factor RsbW1 of Mycobacterium smegmatis, locus MSMEG_1803, 138 amino acids; also called purified RsbW1; source: E. coli BL21 (DE3) with pT7-7rsbW1, purified (Ni-Sepharose)
T1 sequence (looked up): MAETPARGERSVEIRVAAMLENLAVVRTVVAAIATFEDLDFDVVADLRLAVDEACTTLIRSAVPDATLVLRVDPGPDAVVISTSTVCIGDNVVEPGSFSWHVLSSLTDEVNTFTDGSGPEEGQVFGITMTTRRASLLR

For “C-terminally His6-tagged S63A RsfB purified from E. coli (natural protein)”, which stoichiometry N [1] is on record?
Its stoichiometry N is 1.

B1: C-terminally His6-tagged WT RsfB (MSMEG_6127) purified from E. coli (natural protein, M. smegmatis, UniProt A0R5B0 1-119, looked up)
chain: MTSQDPANCTVEERRVGDITVVAVTGTVDMLTAPKLEDAIGSAAKSEPSAVVVDLSAVDFLASAGMGVLVAAHGELAPAVRLVVVADGPATSRPLKLVGIADVVDLFATLDEALSSLKT
notes: Anti-SigF antagonist RsfB of Mycobacterium smegmatis, locus MSMEG_6127; unphosphorylated when made in E. coli; also called RsfB-His6; source: E. coli BL21 (DE3) with pT7-7rsfB, purified (Ni-Sepharose twice, PD-10 desalting)
How did the “stoichiometry N” value [2] turn out when B1 was run?
The value was 1.
